# Target: Amyloid fibrils of full-length human PrP (human, UniProt P04156 23-230)
# Experiment: static light scattering kinetics
# Conditions: both partners purified
binder,measurement,value
"Full-length human acetylcholinesterase (dimeric, recombinant) (enzyme, also called AChE; dimeric AChE) EGREDAELLVTVRGGRLRGIRLKTPGGPVSAFLGIPFAEPPMGPRRFLPPEPKQPWSGVVDATTFQSVCYQYVDTLYPGFEGTEMWNPNRELSEDCLYLNVWTPYPRPTSPTPVLVWIYGGGFYSGASSLDVYDGRFLVQAERTVLVSMNYRVGAFGFLALPGSREAPGNVGLLDQRLALQWVQENVAAFGGDPTSVTLFGESAGAASVGMHLLSPPSRGLFHRAVLQSGAPNGPWATVGMGEARRRATQLAHLVGCPPGGTGGNDTELVACLRTRPAQVLVNHEWHVLPQESVFRFSFVPVVDGDFLSDTPEALINAGDFHGLQVLVGVVKDEGSYFLVYGAPGFSKDNESLISRAEFLAGVRVGVPQVSDLAAEAVVLHYTDWLHPEDPARLREALSDVVGDHNVVCPVAQLAGRLAAQGARVYAYVFEHRASTLSWPLWMGVPHGYEIEFIFGIPLDPSRNYTAEEKIFAQRLMRYWANFARTGDPNEPRDPKAPQWPPYTAGAQQYVSLDLRPLEVRRGLRAQACAFWNRFLPKLLSATDTLDEAERQWKAEFHRWSSYMVHWKNQFDHYSKQDRCSDL",stoichiometry N,1
